The numbers were not newly measured in article PMC4476730, which cites them from elsewhere.

Read-outs that look alike come from different tables or passages of the source.

Usually Kd stands for the constant that tells how readily two partners part at equilibrium.

Data set [1] addresses CBP KIX (Homo sapiens) (UniProt Q92793).
The target is the same in data set [2]. The source holds these as a separate data set.

UniProt Q92793, sequence (Q92793 584-669): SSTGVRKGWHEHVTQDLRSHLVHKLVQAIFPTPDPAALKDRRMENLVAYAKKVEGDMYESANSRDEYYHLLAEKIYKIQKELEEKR

For E2A AD2 (from UniProt P15923), the values for the Kd in the data set with CBP KIX (Homo sapiens) [1] and in the data set with CBP KIX (Homo sapiens) [2] were 17 µM and 7.2 µM, respectively.
